Source: paper PMC12987686 (RSC pharmaceutics, 2025)
Peptide text beside a SMILES is read from it.

Legend:
[1] = Stability in the final formulation by analytical rad-HPLC; type: physicochemical; details: final formulation 10/30/60 v/v/v ethanol/1.0 M sodium acetate/saline, room temperature, mean ± SD, n = 4
in vivo [2] = test: in vivo; set-up: species or system mouse; details: CD1, mouse, iv, total radioactivity
healthy CD1 mice = test: in vivo; set-up: species or system mouse; details: mouse
in vivo [3] = details: CD1, mouse, iv, total radioactivity
in vivo [4] = test: in vivo; set-up: species or system mouse; details: CD1, mouse, iv, total radioactivity; remark: listed apart in the source
[5] = tested on: CD1 mice with myocardial infarction; test: in vivo; set-up: species or system mouse; details: mouse
[6] = tested on: CD1 mice with myocardial infarction; details: mouse, in vivo
[7] = cited from earlier work

CC(C)C[C@H](NC(=O)[C@H](Cc1c[nH]cn1)NC(=O)[C@H](Cc1c[nH]c2ccccc12)NC(=O)[C@@H]1CCCN1C(=O)[C@H](C)NC(=O)CN1CCN(CC(=O)O)CCN(CC(=O)O)CC1)C(=O)N[C@@H](CO)C(=O)N[C@@H](CO)C(=O)N[C@@H](CCC(N)=O)C(=O)N[C@@H](Cc1ccc(O)cc1)C(=O)N[C@@H](CO)C(=O)N[C@@H](CCCNC(=N)N)C(=O)N[C@H](C(=O)O)[C@@H](C)O [[^68Ga]Ga-NOTA-CTP, metal not drawn] (HELM PEPTIDE1{[O=C(O)CN1CCN(CC(=O)O)CCN(CC(=O)[*:2])CC1].A.P.W.H.L.S.S.Q.Y.S.R.T}$$$$V2.0; N-terminus and C-terminus assumed)
radiochemical purity in the formulation ([1]; 0 min post-synthesis): 98.78 ± 1.08%
radiochemical purity in the formulation ([1]; 2 h post-synthesis): 92.52 ± 3.66%
SUV at 1 h (in vivo [2]; 2.29 MBq, SUV heart): 0.04 ± 0.04 SUV
SUV at 2 h (in vivo [2]; 2.29 MBq, SUV heart): 0.02 ± 0.01 SUV
SUV (in vivo [2]; 2.29 MBq, SUV kidneys): 2.64 ± 0.89 SUV
SUV at 1 h (in vivo [2]; 2.29 MBq, SUV kidneys): 0.92 ± 0.68 SUV
SUV at 2 h (in vivo [2]; 2.29 MBq, SUV kidneys): 0.1 SUV
SUV (in vivo [2]; 2.29 MBq, SUV liver): 1.42 ± 0.49 SUV
SUV at 1 h (in vivo [2]; 2.29 MBq, SUV liver): 0.69 ± 0.32 SUV
SUV at 2 h (in vivo [2]; 2.29 MBq, SUV liver): 0.14 SUV
SUV (in vivo [2]; 2.29 MBq, SUV muscle): 0.36 ± 0.12 SUV
SUV at 1 h (in vivo [2]; 2.29 MBq, SUV muscle): 0.18 ± 0.13 SUV
SUV at 2 h (in vivo [2]; 2.29 MBq, SUV muscle): 0.19 ± 0.18 SUV
SUV (in vivo [2]; 2.29 MBq, SUV urinary bladder): 7.51 ± 3.49 SUV
SUV at 1 h (in vivo [2]; 2.29 MBq, SUV urinary bladder): 10.6 ± 6.1 SUV
SUV at 2 h (in vivo [2]; SUV urinary bladder): 9.02 ± 8.59 SUV
SUV in left ventricle (LV) vs right ventricle (RV) (healthy CD1 mice): SUV in LV was lower than the RV
time of clearance from the blood (healthy CD1 mice): ≤ 30 min
SUV at 2 h (in vivo [3]; SUV Cecum): 2.36 ± 2.24 SUV
SUV at 2 h (in vivo [3]; SUV Heart): 0.02 ± 0.006 SUV
SUV at 2 h (in vivo [3]; SUV Lung): 0.04 ± 0.02 SUV
SUV at 2 h (in vivo [3]; SUV Pancreas): 0.05 ± 0.06 SUV
SUV at 2 h (in vivo [4]; 2.29 MBq, SUV heart): 0.03 ± 0.02 SUV
SUV at 2 h (in vivo [4]; SUV Cecum): 2.28 ± 3.64 SUV
SUV at 2 h (in vivo [4]; SUV Lung): 0.04 ± 0.04 SUV
SUV at 2 h (in vivo [4]; SUV Pancreas): 0.05 ± 0.04 SUV
SUV Heart [5]: 0.03 ± 0.02
time of clearance from the blood [6]: ≤ 30 min

[82Rb] [^82Rb]
first-pass extraction fraction [7]: ~ 65%

[15OH2] [^15O-water]
first-pass extraction fraction [7]: ~ 100%

CC(C)(C)n1ncc(OCc2ccc(COCC[18F])cc2)c(Cl)c1=O [[^18F]F-flurpiridaz]
first-pass extraction fraction [7]: 94%
